Experimental findings from patent publication US20200262927A1 (OXFORD BIOTHERAPEUTICS, published 2020) are described below.

In general, EC50 (read off the curve) refers to the concentration at which the effect is half-maximal. High values mean weaker potency, low ones greater potency.

For experiment [1], the target named is human CRTAM on in vitro activated human T cells (human) (UniProt O95727). The experiment can be described thus: flow cytometry on in vitro activated human T cells, MFI against antibody concentration. A general note: A flow cytometer gives signals particle by particle.
The target of experiment [2] is T1, human CRTAM on in vitro activated human T cells (human, UniProt O95727 18-393).
T1 sequence: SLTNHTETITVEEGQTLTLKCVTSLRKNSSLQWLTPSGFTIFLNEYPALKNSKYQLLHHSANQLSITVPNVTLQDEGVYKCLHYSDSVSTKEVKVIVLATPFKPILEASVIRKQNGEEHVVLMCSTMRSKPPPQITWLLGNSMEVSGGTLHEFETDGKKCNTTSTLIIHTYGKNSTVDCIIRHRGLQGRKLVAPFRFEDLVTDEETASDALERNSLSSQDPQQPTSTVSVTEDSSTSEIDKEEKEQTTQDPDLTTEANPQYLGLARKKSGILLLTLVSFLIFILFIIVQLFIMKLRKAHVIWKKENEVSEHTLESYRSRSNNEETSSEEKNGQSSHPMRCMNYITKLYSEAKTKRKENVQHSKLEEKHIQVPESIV
Put plainly: flow cytometry on in vitro activated human T cells, goat anti-rat IgG-RPE detection, MFI against antibody concentration. As for the experimental part: Following this the cells were cultured with anti-CD3/anti-CD28 activation beads (Cat #11132D, Thermo Fisher, Waltham, Mass.) for 24 hours before FACS analysis (data not shown).
Fluorescence-activated cell sorting (FACS) analysis was performed in 96-well plate format according to standard protocols. Activated T cells were prepared as above. All subsequent steps of the staining protocol were carried out on ice with ice-cold reagents except for the centrifugation steps which was done at RT. Three-fold serial dilutions of the antibodies, were prepared in FACS buffer to give a 12-point titration curve with final concentrations ranging from 133 nM to 1 pM. The corresponding hybridoma supernatants, isotype controls, and positive control antibodies were diluted in ice cold FACS buffer to be tested at a single point with a final concentration of 30 nM. The antibody dilutions were each dispensed (100 μL/well) into one well for each cell line. […] The final cell pellets were re-suspended in […]+50 μl of 4% paraformaldehyde and fixed until ready to be acquired in a Flow cytometer. […] Geometric mean fluorescence intensity (GMFI or Geo Mean) of each sample was determined using a Guava Easycyte Plus high-throughput flow cytometer (96 well plates) and raw data were analyzed using the Guava Cytosoft Pro Software Module, version 2.2.2 (Millipore, Billerica Mass.). […]

In experiment [1], “commercially available anti-CRTAM antibody CR24.1 (BioLegend)” showed a concentration for a half-maximal effect (EC50 (read off the curve)) of 2 µg/mL.

B1: 5A11 parental rat monoclonal anti-CRTAM antibody (antibody, V domains shown)
VH: AVQLVESGGGLVQPKESLKISCAASGFTFSDAAMYWVRQAPGKGLEWVARIRTKTNNYAAHYVESVKGRFTVSRDDSKSMVYLQMDNLKTDDTAMYYCTSVPQGTQDYWGQGVMVTVSS
VL: SYELIQPPSASVTLGNTVSLTCVGDELSKRYVQWSQQKPDKTIVSVIYKDSERPSGISDRFSGSSSGTTATLTIHGTLAEDEADYYCLSTYSDDNLPVFGGGTKLTVL
notes: Rat monoclonal from a hybridoma, detected with goat anti-rat IgG; also called antibody 5A11; BUH-5A11-F2
Consider B1, for which the “EC50 (read off the curve)” value in experiment [2] was about 0.02 µg/mL.
